Experimental data from patent US6846910B2, “Isolated proteins containing portions of FAPα and other proteins” (Ludwig Institute for Cancer Research, priority 1994, dated 2005).

Legend:
170 kD FAPα dimer = molecular target: T1, 170 kD FAPα dimer (Homo sapiens, UniProt Q12884, A207P/T229K/T354R); test: Gelatin zymography with added treatments; assay type: biochemical
T1 construct: expressed in transfected cells; host or cells: 293 cells stably transfected with pFAP.38 (293-FAP)
T1 sequence (Q12884 1-760 A207P/T229K/T354R): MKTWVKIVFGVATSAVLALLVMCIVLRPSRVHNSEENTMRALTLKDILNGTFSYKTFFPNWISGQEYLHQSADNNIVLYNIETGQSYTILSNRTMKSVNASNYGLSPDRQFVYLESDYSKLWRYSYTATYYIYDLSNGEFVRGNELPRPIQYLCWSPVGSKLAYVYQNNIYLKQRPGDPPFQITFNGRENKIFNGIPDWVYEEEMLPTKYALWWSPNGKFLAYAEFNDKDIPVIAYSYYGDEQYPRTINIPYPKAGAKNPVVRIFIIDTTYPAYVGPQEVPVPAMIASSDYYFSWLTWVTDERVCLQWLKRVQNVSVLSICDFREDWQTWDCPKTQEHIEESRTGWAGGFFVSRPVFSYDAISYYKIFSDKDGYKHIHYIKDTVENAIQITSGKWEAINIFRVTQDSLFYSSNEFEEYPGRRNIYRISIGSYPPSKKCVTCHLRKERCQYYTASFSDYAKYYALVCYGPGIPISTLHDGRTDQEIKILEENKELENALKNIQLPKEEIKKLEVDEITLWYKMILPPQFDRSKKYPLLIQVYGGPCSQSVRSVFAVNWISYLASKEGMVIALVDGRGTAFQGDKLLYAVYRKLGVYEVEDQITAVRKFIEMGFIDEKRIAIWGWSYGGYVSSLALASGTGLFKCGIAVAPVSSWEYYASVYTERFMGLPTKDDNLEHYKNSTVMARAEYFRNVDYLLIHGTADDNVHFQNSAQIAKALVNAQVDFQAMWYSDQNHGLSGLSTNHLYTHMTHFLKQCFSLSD
Description: Extracts of 293-FAP cells were prepared, using an extraction buffer (0.15M NaCl, 0.05M Tris-HCl, pH 7.4, 10 mM MgCl2, 1 percent Triton X-114), were cleared by centrifugation (4,000×g, 10 minutes at 40° C.), and phase partitioned at 37° C. for 10-20 minutes. This was followed by further centrifugation (4000×g, 20 minutes at 20-25° C.) Detergent phases were diluted with buffer (0.15M NaCl, 0.05M Tris-HCl pH 7.4, 5 mM CaCl2, 5 mM MgCl2, 0.75% Empigen BB), and separated on concanavalin A-Sepharose following Rettig et al., supra. Any concanavalin A bound fractions were eluted with 0.25M methyl-α-D-mannopyranoside in elution buffer 0.15M NaCl,0.05M Tris-HCl, pH 7.4, 5 mM CaCl2, 5 mM MgCl2, 0.1% Triton X-100), mixed with zymography sample buffer (0.25M Tris-HCl, pH 6.8, 8% SDS, 40% glycerol, 0.01% bromophenol blue), at a 3:1 ratio, and used for further analysis.
Aliquots of sample were loaded onto polyacrylamide gels containing 0.1% of either of gelatin or casein. Electrophoresis was then carried out in a Biorad Mini-Protein II system,.at 20 mA constant current for 1.5-2 hours, until the bromophenol blue dye fronts of samples had reached the lower end of the gel. The gel was removed and incubated for one hour at 20-25° C. in a 2.5% aqueous solution of Triton X-100 on a rotary shaker. The Triton X-100 solution was decanted, and replaced with enzyme buffer (0.05M Tris-HCl, pH 7.5, 0.2M NaCl, 5 mM CaCl2, 5 mM MgCl2, 0.02% Brij 35). The gel was then incubated at 37° C. or 41° C., followed by staining or destaining at room temperature. Gels were stained with 0.5% of Coomassie Brilliant Blue G-250 in an aqueous solution of 30% methanol and 10% acetic acid for 15, 30, and 60 minutes, respectively. Subsequently, gels were incubated for 15 minutes in an aqueous solution of 30% CH3OH and 5% glycerol, followed by drying between sheets of cellophane.

[1] = molecular target: fibroblast activation protein alpha (human) (UniProt Q12884); test: MHA rosetting assay on SW872 liposarcoma cells
[2] = molecular target: fibroblast activation protein alpha (human) (UniProt Q12884); test: MHA rosetting assay on COS-1 cells transfected with pFAP.38
gelatin = test: Gelatin zymography of 293-FAP cell extracts; assay type: biochemical; conditions: unboiled samples, approximately 170 kilodalton species
Description: (§1) Extracts of 293-FAP cells were prepared, using an extraction buffer (0.15M NaCl, 0.05M Tris-HCl, pH 7.4, 10 mM MgCl2, 1 percent Triton X-114), were cleared by centrifugation (4,000×g, 10 minutes at […]), and phase partitioned at 37° C. for 10-20 minutes. This was followed by further centrifugation (4000×g, 20 minutes at 20-25° C.) Detergent phases were diluted with buffer (0.15M NaCl, 0.05M Tris-HCl pH 7.4, 5 mM CaCl2, 5 mM MgCl2, 0.75% Empigen BB), and separated on concanavalin A-Sepharose following Rettig et al., supra. Any concanavalin A bound fractions were eluted with 0.25M methyl-α-D-mannopyranoside in elution buffer 0.15M NaCl,0.05M Tris-HCl, pH 7.4, 5 mM CaCl2, 5 mM MgCl2, 0.1% Triton X-100), mixed with zymography sample buffer (0.25M Tris-HCl, pH 6.8, 8% SDS, 40% glycerol, 0.01% bromophenol blue), at a 3:1 ratio, and used for further analysis.
(§2) Aliquots of sample were loaded onto polyacrylamide gels containing 0.1% of either of gelatin or casein. Electrophoresis was then carried out in a Biorad Mini-Protein II system,.at 20 mA constant current for 1.5-2 hours, until the bromophenol blue dye fronts of samples had reached the lower end of the gel. […]
Gelatinase activity was evaluated in accordance with Kleiner et al., Anal. Biochem. 218: 325-329 (1994), incorporated by reference in its entirety. […]

casein = test: Casein zymography of 293-FAP cell extracts; assay type: biochemical; conditions: gel with 0.1% casein
Description: as §1
as §2, with “gel. The gel was removed and incubated for one hour at 20-25° C. in a 2.5% aqueous solution of Triton X-100 on a rotary shaker.” for “gel.”

[3] = Membrane overlay assay for proteolytic activity; assay type: biochemical; conditions: Ala-Pro-, Gly-Pro-, Lys-Pro-7-amino-4-trifluoromethyl coumarin
Description: Proteolytic activity for defined amino acid sequence motifs were tested, using a well known membrane overlay assay. See Smith et al, Histochem. J. 24(9): 637-647 (1992), incorporated by reference. Substrates were Ala-Pro-7-amino-4-trifluoromethyl coumarin, Gly-Pro-7-amino-4-trifluoromethyl coumarin, and Lys-Pro-7-amino-4-trifluromethyl coumarin.

OCCS [2-mercaptoethanol]
effect on gelatin degrading enzymatic activity (170 kD FAPα dimer; 5% added to extracts prior to SDS-PAGE): None of these treatments abolished the enzymatic activity

monoclonal antibody F19
Cell surface antigen expression (% positive cells) [1]: > 95% | Cell surface antigen expression (% positive cells) [2]: 40%

NC(=O)CI [iodoacetamide]
effect on gelatin degrading enzymatic activity (170 kD FAPα dimer; 5 um added to extracts prior to SDS-PAGE): None of these treatments abolished the enzymatic activity

O=C(O)CN(CCN(CC(=O)O)CC(=O)O)CC(=O)O [ethylenediamine N,N,N′,N′-tetraacetic acid]
effect on gelatin degrading enzymatic activity (170 kD FAPα dimer; 10 mM added to incubation buffer for gelatin zymography): None of these treatments abolished the enzymatic activity

B1: FAPα: recombinant fibroblast activation protein alpha from 293-FAP cells, approximately 170 kilodalton dimeric species by SDS-PAGE of unboiled samples (protein)
chain: MKTWVKIVFGVATSAVLALLVMCIVLRPSRVHNSEENTMRALTLKDILNGTFSYKTFFPNWISGQEYLHQSADNNIVLYNIETGQSYTILSNRTMKSVNASNYGLSPDRQFVYLESDYSKLWRYSYTATYYIYDLSNGEFVRGNELPRPIQYLCWSPVGSKLAYVYQNNIYLKQRPGDPPFQITFNGRENKIFNGIPDWVYEEEMLPTKYALWWSPNGKFLAYAEFNDKDIPVIAYSYYGDEQYPRTINIPYPKAGAKNPVVRIFIIDTTYPAYVGPQEVPVPAMIASSDYYFSWLTWVTDERVCLQWLKRVQNVSVLSICDFREDWQTWDCPKTQEHIEESRTGWAGGFFVSRPVFSYDAISYYKIFSDKDGYKHIHYIKDTVENAIQITSGKWEAINIFRVTQDSLFYSSNEFEEYPGRRNIYRISIGSYPPSKKCVTCHLRKERCQYYTASFSDYAKYYALVCYGPGIPISTLHDGRTDQEIKILEENKELENALKNIQLPKEEIKKLEVDEITLWYKMILPPQFDRSKKYPLLIQVYGGPCSQSVRSVFAVNWISYLASKEGMVIALVDGRGTAFQGDKLLYAVYRKLGVYEVEDQITAVRKFIEMGFIDEKRIAIWGWSYGGYVSSLALASGTGLFKCGIAVAPVSSWEYYASVYTERFMGLPTKDDNLEHYKNSTVMARAEYFRNVDYLLIHGTADDNVHFQNSAQIAKALVNAQVDFQAMWYSDQNHGLSGLSTNHLYTHMTHFLKQCFSLSD
gelatin degrading activity (gelatin): observed to have gelatin degrading activity | proteolytic activity with casein as substrate (casein): not observed | cleavage of dipeptide substrates [3]: able to cleave all of the Ala-Pro, Gly-Pro, and Lys-Pro dipeptides tested
